One block for each binder: values may come before it.
How the values were obtained:
[1] = target: 人CD47蛋白 (human CD47 protein) (human, UniProt Q08722 19-139, limits assumed); assay: SPR (Biacore 8K), antibody captured on protein A chip, human CD47 protein as analyte
[2] = target: T1, 人CEACAM5蛋白 (human CEACAM5 protein) (human, UniProt P06731 35-685, limits assumed); assay: SPR (Biacore 8K), antibody captured on protein A chip, human CEACAM5 protein as analyte
T1 construct: Soluble protein used for ELISA coating and as SPR analyte; The construct is not described
T1 sequence (looked up): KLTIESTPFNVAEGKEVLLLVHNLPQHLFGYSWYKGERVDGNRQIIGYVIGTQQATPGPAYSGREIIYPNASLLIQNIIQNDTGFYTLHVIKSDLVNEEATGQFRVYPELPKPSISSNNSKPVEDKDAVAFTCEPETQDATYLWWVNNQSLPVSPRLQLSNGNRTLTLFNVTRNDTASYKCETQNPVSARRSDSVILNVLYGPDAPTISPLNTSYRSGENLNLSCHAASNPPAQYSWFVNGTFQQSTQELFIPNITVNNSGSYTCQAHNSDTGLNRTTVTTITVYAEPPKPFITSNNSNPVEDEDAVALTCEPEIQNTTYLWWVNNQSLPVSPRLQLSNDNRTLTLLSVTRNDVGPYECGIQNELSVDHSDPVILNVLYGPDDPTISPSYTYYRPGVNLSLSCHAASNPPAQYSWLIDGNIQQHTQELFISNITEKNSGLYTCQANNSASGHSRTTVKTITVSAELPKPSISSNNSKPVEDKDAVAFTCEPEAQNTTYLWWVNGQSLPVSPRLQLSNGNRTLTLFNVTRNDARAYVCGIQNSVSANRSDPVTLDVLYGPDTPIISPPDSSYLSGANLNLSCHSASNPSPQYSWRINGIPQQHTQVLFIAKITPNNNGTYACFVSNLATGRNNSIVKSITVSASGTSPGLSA

[3] = target: T2, 人CEACAM5 on CHO cells (CHO-CEACAM5) (human, UniProt P06731 35-685); assay: flow cytometry on CHO cells overexpressing human CEACAM5
T2 construct: whole, on cells; also called 过表达人CEACAM5的CHO细胞
T2 sequence (looked up): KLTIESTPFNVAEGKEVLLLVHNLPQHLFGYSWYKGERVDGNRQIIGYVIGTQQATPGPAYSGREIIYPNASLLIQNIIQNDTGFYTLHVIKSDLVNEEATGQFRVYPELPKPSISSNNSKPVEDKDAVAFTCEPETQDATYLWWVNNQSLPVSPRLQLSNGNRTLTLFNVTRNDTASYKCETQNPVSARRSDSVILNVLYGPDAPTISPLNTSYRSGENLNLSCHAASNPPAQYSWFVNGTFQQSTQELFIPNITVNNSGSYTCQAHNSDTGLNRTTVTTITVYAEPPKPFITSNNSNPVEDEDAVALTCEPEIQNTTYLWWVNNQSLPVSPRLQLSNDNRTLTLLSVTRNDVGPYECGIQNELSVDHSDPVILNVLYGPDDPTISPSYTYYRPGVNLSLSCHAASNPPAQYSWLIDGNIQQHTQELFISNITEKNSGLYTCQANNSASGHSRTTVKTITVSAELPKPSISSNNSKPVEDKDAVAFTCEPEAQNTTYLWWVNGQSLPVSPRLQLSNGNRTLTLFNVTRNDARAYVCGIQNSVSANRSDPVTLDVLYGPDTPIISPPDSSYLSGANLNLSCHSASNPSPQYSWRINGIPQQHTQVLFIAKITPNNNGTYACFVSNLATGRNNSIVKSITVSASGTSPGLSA

[4] = target: T1, 人CEACAM5蛋白 (human CEACAM5 protein); assay: ELISA, plate-coated human CEACAM5 protein, goat anti-human IgG HRP
[5] = target: T1, 人CEACAM5蛋白 (human CEACAM5 protein); assay: SPR (Biacore), antibody captured on protein A chip; the text value differs tenfold from Table 8
[6] = target: T3, 人CEACAM6 on CHO cells (CHO-CEACAM6) (human, UniProt P40199 35-320); assay: flow cytometry on CHO-CEACAM6 stable cells
T3 construct: whole, on cells
T3 sequence (looked up): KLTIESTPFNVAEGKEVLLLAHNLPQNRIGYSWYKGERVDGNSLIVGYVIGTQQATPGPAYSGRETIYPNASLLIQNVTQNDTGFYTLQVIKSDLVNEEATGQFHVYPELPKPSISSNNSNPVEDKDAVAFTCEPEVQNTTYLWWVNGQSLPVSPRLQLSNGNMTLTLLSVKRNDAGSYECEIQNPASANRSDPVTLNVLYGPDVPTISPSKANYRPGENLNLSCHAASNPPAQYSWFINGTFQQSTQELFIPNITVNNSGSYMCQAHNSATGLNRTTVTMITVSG

[7] = target: T1, 人CEACAM5蛋白 (human CEACAM5 protein); assay: SPR (Biacore), antibody captured on protein A chip, CEACAM5 protein as analyte
[8] = target: 食蟹猴CEACAM5蛋白 (cynomolgus CEACAM5 protein) (cynomolgus monkey); assay: ELISA, plate-coated cynomolgus CEACAM5 protein
CD47 on A549 cells = target: T4, CD47 on A549 cells (human, UniProt Q08722 19-323); assay: grade of blocking of SIRPα-mouse Fc binding to CD47 on A549 cells, flow cytometry (reference antibody)
T4 construct: whole, on cells; A549 cells also express CEACAM5; also called A549细胞上CD47

Kd [1]: 65.7 nM
koff [1]: 0.0451 s⁻¹
kon [1]: 686000 M⁻¹ s⁻¹
Kd [2]: 7.43 nM
koff [2]: 0.000173 s⁻¹
kon [2]: 23300 M⁻¹ s⁻¹
B1: UM11-L34 (bispecific antibody)
chain 1: not shown
chain 2: DIQMTQSPSSLSASVGDRVTITCGASENIYGTLNWYQQKPGKSPKLLIYGATNLADAVPSRFSGSGSGTDYTLTISSLQPEDVATYYCQNVLSIPYTFGGGTKVEIKRTVAAPSVFIFPPSDEQLKSGTASVVCLLNNFYPREAKVQWKVDNALQSGNSQESVTEQDSKDSTYSLSSTLTLSKADYEKHKVYACEVTHQGLSSPVTKSFNRGEC

binding result (CD47 on A549 cells): binds
B4: UM03-C4 (antibody, V domains shown)
VH: QVQLVESGGGVVQPGGSLRLSCAASGFTFSDYGMAWIRQAPGKGPEWIAFITNLASSIYYADTVTGRFTISRDNSKNTLYLQMNSLRAEDTAVYYCARAGDYRSFPYWGQGTLVTVSA
VL: EIVLTQSPATLSLSPGERATLSCSASSSVNYVNWYQQKPGQAPRILIYGISNLASGVPARFSGSGSGTDFTLTISSLEPEDFAVYYCQQRSTFPPYTFGQGTKLEIK
notes: IgG4 subtype of the humanized anti-human CD47 antibody; also called 人源化CD47单克隆抗体; CD47抗体的IgG4亚型

More lines, now with the values behind:

B2: UM05-C9 (antibody, V domains shown)
VH: QVQLVQSGAEVKKPGASVKVSCKASGYTFTDYAMHWVRQAPGQGLEWIGVISTYSGHTNYNQKFKGRAIMTRDKSISTAYMELSRLRSDDTAVYYCVRGSTTAHYYTMDFWGQGTTVTVSS
VL: DIQMTQSPSSLSASVGDRVTITCGASENIYGTLNWYQQKPGKSPKLLIYGATNLADAVPSRFSGSGSGTDYTLTISSLQPEDVATYYCQNVLSIPYTFGGGTKVEIK
notes: Humanized anti-human CEACAM5/6 antibody; Only the variable domains are tied to it by name; Detected with goat anti-human IgG; also called 人源化抗体UM05-C9; CEACAM5/6抗体UM05-C9
EC50 [3]: 0.637 mg/L
EC50 [4]: 0.399 nM

B3: UM05-L9 (antibody, human IgG1, kappa, V domains shown)
VH: QVQLQQSGPELVRPGVSVKISCKGSGYTFTDYAMHWVKQSHAKSLEWIGVISTYSGHTNYNQKFKGKAIMTVDKSSSTAYMDLARLTSEDSAIYYCVRGSTTAHYYTMDFWGQGTSVTVSS
VL: DIQMTQSPVSLSASVGETVTITCGASENIYGTLNWYQRKQGKSPQLLIYGATNLADGVSSRFSGSGSGRQYSLKISSLHPDDVATYYCQNVLSIPYTFGGGTKLEIKR
notes: also called 人-鼠嵌合抗体UM05-L9; 嵌合抗体UM05-L9
Kd [5]: 0.68 nM
binding result [6]: binds
Kd [7]: 6.8 nM
koff [7]: 0.000445 s⁻¹
kon [7]: 65400 M⁻¹ s⁻¹
EC50 [8]: 0.678 nM
